Experimental data taken from patent EP1141254B1.

Key:
Experiment in all cases: cell-based or functional assay
[1] = target: 980601 (BX): purified preparation of Danisco's new bacterial xylanase expressed in E. coli (Bacillus subtilis) (UniProt P18429)
[2] = target: 980903 (XM1): purified mutant of Bacillus sub. wild type xylanase expressed in E. coli
[3] = target: 980603 (Röhm): purified preparation of Frimond's Belase xylanase (identical to Röhm's) (Bacillus subtilis)

Sequence of endogenous endo-β-1,4-xylanase inhibitor from wheat flour (main, form in doubt): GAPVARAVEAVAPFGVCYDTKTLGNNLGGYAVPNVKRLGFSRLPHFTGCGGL
Sequence of endogenous endo-β-1,4-xylanase inhibitor from wheat flour (main, form in doubt): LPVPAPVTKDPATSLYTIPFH

- Inhibition, % (inhibitor extracted from flour 98002) [1]: 67%
- Inhibition, % (inhibitor extracted from flour 98026) [1]: 75%
- OD 590 in the inhibitor assay with inhibitor extract from flour 98026 (without inhibitor: 0.675) [1]: 0.165 OD 590
- Residual activity, % (inhibitor extract from flour 98026) [1]: 24.4%
- Rest act., % (average of flours 98002 and 98026) [1]: 29%
- Rest act., % (inhibitor extracted from flour 98002) [1]: 33%
- Rest act., % (inhibitor extracted from flour 98026) [1]: 25%
- Vmax from the Lineweaver-Burk plot of xylanase 980601 with and without inhibitor (relative OD 590) (relative OD 590) [1]: 1.19
- residual activity of XM1 after incubation with flour extract, relative to that of XM2 [2]: 2.5 fold
- Inhibition, % (inhibitor extracted from flour 98002) [3]: 60.8%
- Inhibition, % (inhibitor extracted from flour 98026) [3]: 61.3%
- Rest act., % (average of flours 98002 and 98026) [3]: 39%
- Rest act., % (inhibitor extracted from flour 98002) [3]: 39.2%
- Rest act., % (inhibitor extracted from flour 98026) [3]: 38.7%
Substance: endogenous endo-β-1,4-xylanase inhibitor from wheat flour
